# Results taken from the RNAGym collection of RNA variant scans (doi:10.1073/pnas.2313332121).
# Fewer inactive variants are shown than the library holds.
# B1: TPR 5TU (parent)
# chain: GGAUCUUCUCGAUCUAACAAAAAAGACAAAUCUGCCACAAAGCUUGAGAGCAUCUUCGGAUGCAGAGGCGGCAGCCUUCGGUGGCGCGAUAGCGCCAACGUUCUCAACUAUGACACGCAAAACGCGUGCUCCGUUGAAUGGAGUUUAUCAUG
# Variants of: B1
# Experiment: polymerase ribozyme fitness, log enrichment relative to wild type (log ratio); higher = more active; in vitro selection for triplet polymerase activity
# In short: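 Input and output libraries were sequenced on Illumina after a single in vitro selection round, run in triplicate on PCR-built, transcribed mutant libraries of each subunit of a heterodimeric triplet polymerase ribozyme. Selection annealed libraries to a biotinylated primer, the partner subunit and triplets, incubated them frozen at −7 °C, then gel-excised extended constructs for streptavidin-bead capture and RT-PCR. Genotypes with ≥10 input reads and ≥1 read per output were kept. Fitness is the logarithm, taken in base 2, of genotype enrichment divided by wild-type enrichment, using inverse-variance-weighted replicate averages.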
row,Variant,polymerase ribozyme fitness (log ratio)
1,GGAUCUUCUCGAUCUAACAAAAAAGACAAAUCUGCCACAAAGCUUGAGAGCAUCUUCGGAUGCAGAGGCGGCAGCCUUCGGUGGGGCGAUAGCGCCAACGUUCUCAACUAUGACACGCAAAACGAGUGCUACGUUGAAUGGAGUUUAUUAUG [C85G C125A C131A C149U],≤ -4.2
2,GGACCUUCUAGUUCUAACAAAAAAGACAAAUCUGCCACAAAGCUUGAGAGCAACUUCGGAUGCAGAGGCGGCAGCCUUCGGUGGCGCCAUAGCGCAAACGUUCUCAACUAUGACACGCAAAACGCGUGCUCCGUUGAAUGGAGUUUAUCAUG [U4C C10A A12U U53A G88C C96A],≤ -4.2
3,GGAUCUUCUCGAUCUAACAAAAAAGUCAAAUCUGCCACAAAGCUUGAGAGCAUCUUCGGAUGCAGAGGCGGCAGCCUUCGGUGGUGCGAUAGCGCCAACGUUCUCAACUAUGACACGCAAAACGCGUGCUCCGUUGAAUGGAGUUUAUCAUG [A26U C85U],-1.63
4,GGAUCUUCUCGAUCUAACAAAAAACACAAAUCUGCCACAAAGCUUGAGAGCAUCUUCGGAUGCAGAGGCGGCAGACUUCGGUGGCGCGAUAGCGCCAACGUUCACAACUAUGACACGCUAAACGCGUGCUCCGGAGAAUGGAGUUUAUCAUG [G25C C75A U104A A119U U134G U135A],≤ -4.2
5,GGAUCUUCUCGACCUAACAAAAAAGACAAAUCUGCCACACAGCUUGACACCAUCUUCGGAUGCAGAGGCGGCAGCCUUCGGUUGCGCGAUAGCGCCAACGUUCUCAACUAUGACACGCAAAACGCGUGCUCCGUUGAAUGGAGUUUAUCAUG [U13C A40C G48C G50C G83U],≤ -4.2
6,GGAUCUUCUCGAUCUAACAAAAAAGAUAAAUCUGCCACAAAGCUUGAGAGCAUCUUCGAAUGCAGACGCGGCAGCCUUCGGUGGCCCGAUAGCGCCAAUGUUCUCAACUAUGACACGCAAAACGCGUGCUCCGUUGAAUGGAGUUUAUCAUG [C27U G59A G67C G86C C99U],≤ -4.2
7,GGAUCUUCUCGAUCUAAGAAAAAAGACAAAUCUGCCACAAAGCUUGAGAGCAUCUUCGGAUGCAGAGGCGGCAGCCUUCGGUGGGGCGAUAGCGCCAACGUUCUCAACUAUGACACGCAAAACGCGUGCUCCGUUGAAUGGAGUUUAUCAUG [C18G C85G],-2.28
8,GGAUCUUCUCGAUCUAACAAAAAAGACAAAUCUGCCACACAGCUUGAGAGCGUCUUCGGAUGCAGAGGCGGCAGCCUUAGGUGGUGCGAUAGCGCCAAAGUUCUCGACUAUGACACGCAAAACGCGUGCUCCGUUGAAUGGUGUUUAUCAUU [A40C A52G C79A C85U C99A A106G A142U G152U],≤ -4.2
9,GGAUCUUCUCGAUCUAACAAAAAAGACAAAUCUGCCACAAAGCUUGAGAGCAUCUUCGGAUGCAGAAGCGGCAGCCUUCGGUGUCGCGAUAGCGCCAACGUUCUCAACUAUGACACGCAAAACGCGUGCUCCGUUGAAUGGAGUUUAUCAUG [G67A G84U],≤ -4.2
10,GGAUCUUCUCGAUCUAACAAAAAAGACAAAUCUGCCACAAAGCUUGAGAGCAUCUUCGGAUGCAGAGGCGGCAGCCUUCGGUGGCGCGAUGGCGCCAACGUUCUCAACUAUGACACGCAAAACGCAUGCUCCGUUGAAUGAAGUUUAUCAUG [A91G G126A G141A],-3.67
11,GGAUCGUCUCGAUCUAACAUAAAAGACAAAUCUGCCACAAAGCUUGAGAGCAUCUUCGGAUGCAGAGGCGGCUGCCUUCGGUGGCGCGAUAGCGCCAACGUUCUCAACUAUGACACGCAAAACGCGUGCUCCGCUGAAUGGAGUGUAUCAUG [U6G A20U A73U U134C U145G],-3.22
12,GGAUCUUCUCGAUCUAACAAAAAAGAUAAAUCUGCCACAAAGCUUGAGAGCAUCUUCGGAUGCAGAGGCGGCAGCCUUCGGUGGCGCGAUAGCACCAACGUUCUCAACUAUGACACGCAAAACGCGUGCUCCGUUGAAUGGAGUUUAUCAUG [C27U G94A],-2.73
13,GGAUCUUCUCGAUCUAACAAAAAAGACAAAUCUGCCACAAAGUUUGAGCGCAUCUUCGGAUGCAGAGGCGGCAGCCUUCGGUGGCGCGAUAGCGCAAACGUUCUCACCUAUGUCACGCAAAACGCGUGCUCCGUUGAAUGGAGUUUAUCAUG [C43U A49C C96A A107C A113U],≤ -4.2
14,GGAUCUUGUCGAUCUAACAAAAAAGACACAUCUGCCACAAACCUUGAGAGCAUCUUCGGAUGCAGAGGCGGCAGCCUUCGGUGGCGCGAUAGCGCCAACGUUCUCAACUAUGACACGCAAAACGCGUGCUCCGUUGAAUGGAGUUUAUCAUG [C8G A29C G42C],≤ -4.2
15,GGAUCUUCUCGAUCUAACAAAAAAGACAAAUCUGCCACAAAGCUUCAGAGCAUCUUCGGAUGCAGAGGCGGCAGCCUUCGGUGGCGCGAUAGCGCCAACGUUCUCAACUAUGACACGCAAAACGCGUGCUCCGUUAAAUGGAGUUUAUCAUG [G46C G136A],-0.148
16,GGAUCUUCUUGAUCUAACAAAAAAGACAAAUCUGCCACAAAGCUUGAGAGCAUCUUCGGAUGCAGAGGCGGCAGCCUUCGGUGGCGCGAUAACGCCAACGUUCUCAACUAUGACACGCAAAACGCGUGCUCCGUUGAAUGCAGUUUAUCAUG [C10U G92A G141C],-3.99
17,GGAUCUUCUCGAUCUAACAAAAAAGACAAAUCUGCCACAAAGCUUGCGAGCAUCUACGGGUGCAGAGGCGGCAGCCUUCGGUGGUGCGAUAGCGCUAACGUUCUCAACUAUGACACGCAAAACGCGUGCUCCGUUGAAUGGAGUUUAUCUUG [A47C U56A A60G C85U C96U A150U],-0.791
18,GGAUCUUCUCGAUCUAACAAAAAAGACAAAUCUGCCACAAAGCUUGAGAGCAUCUUCGGAUGCAGAGGCGGCAGCCUUCGGUGGCGCGAUUGCGCCAACGUUCUCAACUAUGACACGCAAAACGCGUGCUCCGUUGAAUGAAGUUUAUCAUG [A91U G141A],-4.05
19,GGAUCUUCUCGAUCUAACAAAAAAGACAAAUCUGCCACAAAGCUUGAGAGCAUCUUCGGAUGCAGAGGCGGCAGCUUUCGGUGGCGAGAUAGCGCCAACGUUCUCAACUAUGACACGCAAAACGCGUGCUCCGUUGAAUGGAGUUUAUCAUG [C76U C87A],-3.85
